Reference: the nanobody polyreactivity screen of Harvey et al. (2022)

Test: yeast display, Sf9 membrane polyspecificity reagent, FACS + sequencing; frameworks hold sequencing errors
In short: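 Galactose induction of a Saccharomyces cerevisiae BJ5465 synthetic nanobody display library ran 36–48 hours. The cells were then stained for 1 hour at 4 °C with 10% biotinylated, detergent-solubilized Sf9 membrane reagent, pulled down on streptavidin microbeads and FACS-sorted into low and high (top ~1%) gates on expression and reagent-binding fluorescence. Labels for polyreactivity follow the gate of origin.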

Sequence | polyreactivity (PSR sort gate)
QVQLVESGGGLVQAGGSLRLSCAASGRIFSWNAMGWYRQAPGKERELVARITWNGGRTYYADSVKGRFTISRDNAKNTVYLQMNSLKPEDTAVYYCNAERFDLTYNYWGQGTQVTVSS | high polyreactivity
QVQLVESGGGLVQAGGSLRLSCAASGRIFSWNTMGWYRQAPGKERELVAAITQSGSTYYADSVKGRFTISRDNAKNTVYLQMNSLKPEDTAVYYCAAVVGRRLYPRYDYWGQGTQVTVSS | high polyreactivity
QVQLVESGGGLVQAGGSLRLSCAASGRIFSYKAMGWYRQAPGKERELVAAISFSTTSTYYADSVKGRFTISRDNAKNTVYLQMYSLKPEDTAVYYCNTPGLPIDSEYDYWGQGTQVTVSS | low polyreactivity
QVQLVESGGGLVQAGGSLRLSCAASGRIFSYNAMGWYRQAPGKERELDAAISWSTGSTFYADSVKGRFTISRDNAKNTVYLQMNSLKPEDTAVYYCAREYYYRRGFFLRGYWGQGTQVTVSS | high polyreactivity
QVQLVESGGGLVQAGGSLRLSCAASGRIFSYNAMGWYRQAPGKERELVAAISSDGSTYYADSVKGRFTISRDNAKNTVYLQMNRLKPEDTAVYYCAAYPRVNGNIHSTGDYWGQGTQVTVSS | low polyreactivity
QVQLVESGGGLVQAGGSLRLSCAASGRIFSYNTMGWYRQAPGKERELVAAISGGGTTYYADSVKGRFTISRDNAKNTVYLQMNSLKPEDTAVYYCNAEYYGYSWRRTKYGYWGQGTQVTVSS | high polyreactivity
QVQLVESGGGLVQAGGSLRLSCAASGRIFSYYAMGWYRHAPWKERELVAAISRSGAKTYYADSVKGRFTISRDNAKNSVYLQMNSLKPEDTAVYYCNADTLRRRYNYWGQGTQVTVSS | high polyreactivity
QVQLVESGGGLVQAGGSLRLSCAASGRIFSYYAMGWYRQAPGKERELVAAISWSGGRTYYADSVKGRFTISRDNAKNTVYLQMNSLKPEDTAVYYCAARLKLYLPRSAYDYWGQGTQVTVSS | high polyreactivity
QVQLVESGGGLVQAGGSLRLSCAASGRIFSYYAMGWYRQAPGKERELVASITSGGSTYADSVKGRFTISRDNAKNTVYLQMNSLKPEDTAVYYCAKGYYWLSTYGDSRYGYWGQGTQVTVSS | high polyreactivity
QVQLVESGGGLVQAGGSLRLSCAASGRIFSYYAMGWYRQAPGKERELVATINSGGSTNYADSVKGRFTISRDNAKNTVYLQMNSLKPVATAVYYCAASPVWWYDYWGQGTQVTVSS | low polyreactivity
QVQLVESGGGLVQAGGSLRLSCAASGRIFSYYAMGWYRQAPGKERELVATISGSGGSTYYADSVKGRFTNSRDNAKNNVYLQMNSLKPEDTAVYYCAARRSGRTRYYWGQGTQVTVSS | high polyreactivity
QVQLVESGGGLVQAGGSLRLSCAASGRIFSYYAMGWYRQAPGTERELVAAISWSGSRTNYADSVKGRFTISRDNAKNTVYLQMKSLKPEDTAVYYCAAEDWSTQGSATVQYDYWGQGTEVTVSS | high polyreactivity
QVQLVESGGGLVQAGGSLRLSCAASGRIFSYYDMGWYRQAPGKERELVARISYSGDSTYYADSVKGRFTISRDNAKNTVYLQMNSLKPEDTAVYYCADEVDSGYSEYYWGQGTQVTVSS | low polyreactivity
QVQLVESGGGLVQAGGSLRLSCAASGRIFTAYYAMGWYRQEPGKESELVASISSSGTSTYADSVKGRFTISRDNAKNSVYLQMISLKPEDTAVYYCATRKLRTRRYDYGYWGQGTQVTVSS | low polyreactivity
QVQLVESGGGLVQAGGSLRLSCAASGRIFTFYAMGWYRQAPAKERELVAAISSGGSTYYADSVKGRFTISRDNAKNTVYLQMNSLKPEDTAVYYCAAEPVWYADYDYWGQGTQVTVSS | low polyreactivity
QVQLVESGGGLVQAGGSLRLSCAASGRIFTGYAMGWYRQAPGKERELVAAISSRGGSTYYADSVKGRFTISRDNAKNTVYLQMNSLKPEDTAVYYCNAYQWRHRYTMYYWGQGTQVTVSS | high polyreactivity
QVQLVESGGGLVQAGGSLRLSCAASGRIFTHNAMGWYRQAPGKERELVAAISYSGVSTYYADSVKGRFTISRDNAKNTVYLHMNSLKPEDTAVYYCNALIQSWRARIRRYYWGQGTQVTVSS | low polyreactivity
QVQLVESGGGLVQAGGSLRLSCAASGRIFTHNAMGWYRQAPGKERELVAAITSGGRTTYADSVKGRFTISRDNAKNTVYLQMNSLKPEDTAVYYCNADTGLGSLDFYNRDYWGHGTQVTVSS | low polyreactivity
QVQLVESGGGLVQAGGSLRLSCAASGRIFTHNVMGWYRQAPGKERELVAAISGGGGSTYYADSVKGRFTISRDNAKNTVYLQMNSLKPEDTAVYYWAAVGFGRQGQEDYWGQGTHVTVSS | low polyreactivity
QVQLVESGGGLVQAGGSLRLSCAASGRIFTIYAMGWYRQAPGKERELVAAISDRGTRTYYADSVKGRFTISRDNAKNTVYLQMNSLKPEDSEVYYCATDALYTYGYDYWGQGTQVTVSS | low polyreactivity
QVQLVESGGGLVQAGGSLRLSCAASGRIFTIYAMGWYRQAPGKERELVATISRRGGSTYYADSVKGRFTISRDNAKNTVYLQMNSLKPEDTAVYYCAADSVITWWAYDYWGQGTQVTVSS | high polyreactivity

Sequence | polyreactivity (PSR sort gate)
QVQLVESGGGLVQAGGSLRLSCAASGRIFTKYAMGWYRQAPGKERELVAAISGSGGNTYYADSVKGRFTISRDNAKNTVYLQMNSLKPEDTAVYYCAVESWRYVGFGYWGQGSQVTVSS | high polyreactivity
QVQLVESGGGLVQAGGSLRLSCAASGRIFTKYAMGWYRQAPGKERELVASISSGGSTYYADSVKGRFTISRDNAKNTVYLQMNSLKPEDTAVYYCARSTGTSRRMDDWGQGTQVTVSS | high polyreactivity
QVQLVESGGGLVQAGGSLRLSCAASGRIFTNAMGWYRQAPGKERELVAAISGGSNTYYADSVKGRFTISRDNAKNTVYLQMNSLKPEDTAVYYCNTDDLWWDGGYDYWGQGTQVTVSS | low polyreactivity
QVQLVESGGGLVQAGGSLRLSCAASGRIFTPNAMGWSRQAPGKERELVAAITWSGDNTYADSVKGRFTISRDNAKNTVYLQMNSLKPEDTAVYYCAAAYGYGHKKYGYWGQGTQVTVSS | low polyreactivity
QVQLVESGGGLVQAGGSLRLSCAASGRIFTPYPMGWYRQAPGKERELVAVIRDGSTYYADSVKGRFTISRDNAKNSVYLQMNSLKPEDSAVYYCRYDIWVWWSGAYDYWGQGTQVTVSS | low polyreactivity
QVQLVESGGGLVQAGGSLRLSCAASGRIFTPYVLGWYRQAPGKERELVARISWTGSSTYYADSVKGRFTISRDNAKNTVYLQMNSLKPEDTAVYYCAKRLTRFYTRLEYWGQGTQVTVSS | low polyreactivity
QVQLVESGGGLVQAGGSLRLSCAASGRIFTPYVMGWYRQAPGKERELVARISWTGSSTYYADSVKGRFTISRDNAKNTVYLQMNSLKPEDTAVYYCAKRLTRFYTRLEYWGQGTQVTVSS | low polyreactivity
QVQLVESGGGLVQAGGSLRLSCAASGRIFTQYAMGWYRQAPGKERELVAAINASDGSTYADSVKGRFTISRDNAKNTVYLQMNSLKPEDSAVYFCYVTGGPYDFTRWSEFDHWGQGTQVTVSS | low polyreactivity
QVQLVESGGGLVQAGGSLRLSCAASGRIFTRNAMGWYRQAPGKERELVAAIRWSGDSTYYADSVKGRFTISRDNAKNTVYLQMNSLKPEDTAVYYCAAYRQRSHRVGTKGHRVGYWGQVTQVTVSS | high polyreactivity
QVQLVESGGGLVQAGGSLRLSCAASGRIFTRNAMGWYRQAPGKERQLVAAISHSGGSTYADSVKGRFTISRDNAKNTVYLQMNSLKPEDTAVYYCAADSPYGYYEGDYCGQGTQVTVSS | low polyreactivity
QVQLVESGGGLVQAGGSLRLSCAASGRIFTRSAMGWYRQAPGKERELVAVITRSGGSTYYADSVKGRFTISRDNAKKTVYLQMNSLKPEDTAVYYCAAKYYGEMYYWGQGTQVTVSS | low polyreactivity
QVQLVESGGGLVQAGGSLRLSCAASGRIFTRYAIGWYRQAPGKERELVAAITYNGGSTYYADSVKGRFTISRDNAKNTVYLQMNSLKPEDTAVYDCNAVYLSWFGLFAGFDYWGQGTQVTVSS | high polyreactivity
QVQLVESGGGLVQAGGSLRLSCAASGRIFTRYAMGWYRQAPGKERELVAAINYRGSSTYYADSVKGRFTISRDNAKKTVYLQMNSLTPEDTAVYYCNTYGQTDTYWRYYYWGQGTQVTVSS | high polyreactivity
QVQLVESGGGLVQAGGSLRLSCAASGRIFTRYAMGWYRQAPGKERELVDGITSRGGSTYYADSVKGRYTISRDNAKNTVYLQMNSLKPEDTAVYYCNKRYTGENDYWGQGTQVTVSS | high polyreactivity
QVQLVESGGGLVQAGGSLRLSCAASGRIFTSNAMGWYRQAPGKEREFVAAITKRGGRTYYADSVKGRFTISRDNAKNTVYLQMNSLKPEDTAVYYCAAGATGTSYYGGDYWGQGTQVTVSS | high polyreactivity
QVQLVESGGGLVQAGGSLRLSCAASGRIFTTYAMGWYRPAPGKERELVAANTSGGRTNYADSVKGRFTISRDNAKNTVYLQMNSLKPEDTAVYYCAADGGVRRLTGLLYSFDYWGQGTQVTVSS | low polyreactivity
QVQLVESGGGLVQAGGSLRLSCAASGRIFTTYAMGWYRQAPGKEREFVAAINYSGGRTYYAESVKGRFTISRDNAKNTVYLQMISLKPEETAVYYCAARSLFRGDYWGQGTQVTVSS | high polyreactivity
QVQLVESGGGLVQAGGSLRLSCAASGRIFTTYAMGWYRQEPGKERELVAAISQNGGSTYYADSVKGRFTISRDNAKNTVYLQMNTLKPEDTAVYYCAAADYYGIRDLYASDGTHYYSWGQGTQVTVSS | low polyreactivity
QVQLVESGGGLVQAGGSLRLSCAASGRIFTWKGMGWYRQAPGKERELVARISSGTRTNYADSVKGRFTISRDNAKNTVYLQMNCLKPEDTAVYYFAAAAKRSDAYHNRRYYWGQGTQVTVSS | high polyreactivity
QVQLVESGGGLVQAGGSLRLSCAASGRIFTWYGMGWYSQAPGKERELVARITQRGGTTYYADSVKGRFTISRDNAKNTVYLQINSLKPEDTAFYYCATQYTYTGRRYYSYVDGSRYYYWGQGTQVTVSS | high polyreactivity
